For the assay, the target named is CD22 (UniProt P20273). Briefly: cell-based or functional assay.
UniProt P20273, sequence (P20273 20-847 limits assumed): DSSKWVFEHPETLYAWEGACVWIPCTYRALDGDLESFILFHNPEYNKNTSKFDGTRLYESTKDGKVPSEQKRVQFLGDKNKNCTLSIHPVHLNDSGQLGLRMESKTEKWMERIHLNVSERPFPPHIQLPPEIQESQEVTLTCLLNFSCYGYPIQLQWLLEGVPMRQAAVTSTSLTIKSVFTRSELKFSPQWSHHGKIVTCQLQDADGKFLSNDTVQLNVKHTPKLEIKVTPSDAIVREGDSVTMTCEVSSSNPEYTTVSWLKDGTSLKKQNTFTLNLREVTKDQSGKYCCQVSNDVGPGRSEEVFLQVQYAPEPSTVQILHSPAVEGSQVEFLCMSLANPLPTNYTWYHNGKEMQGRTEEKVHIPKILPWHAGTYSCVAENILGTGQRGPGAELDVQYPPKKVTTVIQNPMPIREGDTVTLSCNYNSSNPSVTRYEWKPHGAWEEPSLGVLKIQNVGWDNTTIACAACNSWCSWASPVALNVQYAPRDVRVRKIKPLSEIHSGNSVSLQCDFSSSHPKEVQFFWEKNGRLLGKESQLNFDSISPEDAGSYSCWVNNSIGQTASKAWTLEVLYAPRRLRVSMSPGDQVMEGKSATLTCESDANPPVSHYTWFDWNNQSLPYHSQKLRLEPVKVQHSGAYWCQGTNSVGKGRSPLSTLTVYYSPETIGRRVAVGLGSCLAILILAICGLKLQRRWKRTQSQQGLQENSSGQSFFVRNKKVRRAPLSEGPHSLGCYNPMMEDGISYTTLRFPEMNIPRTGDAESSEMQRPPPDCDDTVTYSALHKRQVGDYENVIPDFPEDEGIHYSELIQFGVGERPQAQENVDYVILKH

Consider HA22-LR, for which the cytotoxicity IC50 (ng/ml) on CA46 cells was 0.11 ng/mL, the cytotoxicity IC50 (ng/ml) on Daudi cells worked out at 0.18 ng/mL and the cytotoxicity IC50 (ng/ml) on Raji cells stood at 0.41 ng/mL.

The values are drawn from patent US20140213529A1.
